The source of these data is IntAct's records for PubMed 23348841.

B1: Nonsense-mediated mRNA decay factor SMG7 (Homo sapiens), Q92540 (parent)
chain: MSLQSAQYLRQAEVLKADMTDSKLGPAEVWTSRQALQDLYQKMLVTDLEYALDKKVEQDLWNHAFKNQITTLQGQAKNRANPNRSEVQANLSLFLEAASGFYTQLLQELCTVFNVDLPCRVKSSQLGIISNKQTHTSAIVKPQSSSCSYICQHCLVHLGDIARYRNQTSQAESYYRHAAQLVPSNGQPYNQLAILASSKGDHLTTIFYYCRSIAVKFPFPAASTNLQKALSKALESRDEVKTKWGVSDFIKAFIKFHGHVYLSKSLEKLSPLREKLEEQFKRLLFQKAFNSQQLVHVTVINLFQLHHLRDFSNETEQHTYSQDEQLCWTQLLALFMSFLGILCKCPLQNESQEESYNAYPLPAVKVSMDWLRLRPRVFQEAVVDERQYIWPWLISLLNSFHPHEEDLSSISATPLPEEFELQGFLALRPSFRNLDFSKGHQGITGDKEGQQRRIRQQRLISIGKWIADNQPRLIQCENEVGKLLFITEIPELILEDPSEAKENLILQETSVIESLAADGSPGLKSVLSTSRNLSNNCDTGEKPVVTFKENIKTREVNRDQGRSFPPKEVRRDYSKGITVTKNDGKKDNNKRKTETKKCTLEKLQETGKQNVAVQVKSQTELRKTPVSEARKTPVTQTPTQASNSQFIPIHHPGAFPPLPSRPGFPPPTYVIPPPVAFSMGSGYTFPAGVSVPGTFLQPTAHSPAGNQVQAGKQSHIPYSQQRPSGPGPMNQGPQQSQPPSQQPLTSLPAQPTAQSTSQLQVQALTQQQQSPTKAVPALGKSPPHHSGFQQYQQADASKQLWNPPQVQGPLGKIMPVKQPYYLQTQDPIKLFEPSLQPPVMQQQPLEKKMKPFPMEPYNHNPSEVKVPEFYWDSSYSMADNRSVMAQQANIDRRGKRSPGVFRPEQDPVPRMPFEKSLLEKPSELMSHSSSFLSLTGFSLNQERYPNNSMFNEVYGKNLTSSSKAELSPSMAPQETSLYSLFEGTPWSPSLPASSDHSTPASQSPHSSNPSSLPSSPPTHNHNSVPFSNFGPIGTPDNRDRRTADRWKTDKPAMGGFGIDYLSATSSSESSWHQASTPSGTWTGHGPSMEDSSAVLMESLKSIWSSSMMHPGPSALEQLLMQQKQKQQRGQGTMNPPH
partner: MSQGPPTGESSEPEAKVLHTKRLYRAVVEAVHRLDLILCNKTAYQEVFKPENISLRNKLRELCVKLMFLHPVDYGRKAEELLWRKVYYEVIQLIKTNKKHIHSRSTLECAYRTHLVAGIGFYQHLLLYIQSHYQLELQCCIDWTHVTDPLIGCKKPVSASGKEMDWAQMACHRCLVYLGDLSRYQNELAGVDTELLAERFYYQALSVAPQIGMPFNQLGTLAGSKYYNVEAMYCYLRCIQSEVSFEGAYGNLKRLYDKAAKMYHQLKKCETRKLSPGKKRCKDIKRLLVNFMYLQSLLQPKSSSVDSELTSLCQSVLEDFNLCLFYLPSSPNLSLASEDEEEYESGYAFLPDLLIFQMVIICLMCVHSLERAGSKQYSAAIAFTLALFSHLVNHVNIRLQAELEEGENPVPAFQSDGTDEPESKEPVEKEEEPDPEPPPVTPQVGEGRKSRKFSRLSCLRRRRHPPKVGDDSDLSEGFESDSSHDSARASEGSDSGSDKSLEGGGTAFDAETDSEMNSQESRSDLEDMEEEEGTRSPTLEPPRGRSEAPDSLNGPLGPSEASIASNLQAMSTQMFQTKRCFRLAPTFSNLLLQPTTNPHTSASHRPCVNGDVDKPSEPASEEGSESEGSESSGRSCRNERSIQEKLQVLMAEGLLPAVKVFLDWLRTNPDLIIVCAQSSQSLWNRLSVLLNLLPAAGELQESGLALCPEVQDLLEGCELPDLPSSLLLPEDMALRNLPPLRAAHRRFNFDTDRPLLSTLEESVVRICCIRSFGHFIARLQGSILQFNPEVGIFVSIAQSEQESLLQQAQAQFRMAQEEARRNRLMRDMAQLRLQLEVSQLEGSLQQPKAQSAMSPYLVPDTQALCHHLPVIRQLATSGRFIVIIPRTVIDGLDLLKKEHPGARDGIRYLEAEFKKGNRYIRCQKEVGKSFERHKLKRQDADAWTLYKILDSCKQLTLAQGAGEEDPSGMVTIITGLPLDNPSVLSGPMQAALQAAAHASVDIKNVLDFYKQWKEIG
B2: Nonsense-mediated mRNA decay factor SMG5 (Homo sapiens), Q9UPR3 (parent)
chain: B1 partner
partner: B1 chain

One experiment covers variants of B1. Conditions: with smg5_human SMG5, Q9UPR3.
As to T103E, the “effect of a mutation on the interaction” value is listed as “disrupting interaction strength”. As to G100E, the “effect of a mutation on the interaction” value is “disrupting interaction strength”.

In a further experiment the parent is B2. Conditions: with smg7_human SMG7, Q92540.
Turning to G120E, the “effect of a mutation on the interaction” value was “disrupting interaction strength”.
